# Earlier results, collected in paper PMC2783455.
# Target: Calmodulin (UniProt P0DP23)
substance,measurement,value
CyaA (from UniProt J7QLC0),Kd,0.2 nM
